Experiment in all cases: fluorescence anisotropy
In series [1] the target is T1, RecE564 P658L (Escherichia coli K12, UniProt P15032 564-866, P658L).
T1 sequence: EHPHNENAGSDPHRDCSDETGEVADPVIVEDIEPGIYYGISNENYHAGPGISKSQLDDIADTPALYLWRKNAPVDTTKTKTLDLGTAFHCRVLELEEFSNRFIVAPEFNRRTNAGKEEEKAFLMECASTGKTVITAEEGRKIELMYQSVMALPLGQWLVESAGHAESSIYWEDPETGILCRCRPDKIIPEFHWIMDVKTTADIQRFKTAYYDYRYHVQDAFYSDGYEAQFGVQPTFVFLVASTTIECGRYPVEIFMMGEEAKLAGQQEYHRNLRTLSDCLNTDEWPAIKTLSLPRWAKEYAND

Series [2] deals with T2, RecE564 P669A (Escherichia coli K12, UniProt P15032 564-866, P669A).
T2 sequence: T1 sequence with L95P, P106A

For series [3], the target named is T3, RecE564 del858-866 (Escherichia coli K12, UniProt P15032 564-857, del858-866).
T3 sequence: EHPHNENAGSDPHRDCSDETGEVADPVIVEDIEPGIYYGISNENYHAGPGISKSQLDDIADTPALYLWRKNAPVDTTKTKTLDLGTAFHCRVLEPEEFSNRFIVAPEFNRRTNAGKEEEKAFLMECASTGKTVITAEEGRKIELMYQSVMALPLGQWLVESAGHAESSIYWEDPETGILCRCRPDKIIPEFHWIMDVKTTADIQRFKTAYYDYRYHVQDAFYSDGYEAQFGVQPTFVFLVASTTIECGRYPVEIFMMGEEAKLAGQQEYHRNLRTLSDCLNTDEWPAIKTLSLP

The target of series [4] is T4, RecE606 P658L (Escherichia coli K12, UniProt P15032 606-866, P658L).
T4 sequence: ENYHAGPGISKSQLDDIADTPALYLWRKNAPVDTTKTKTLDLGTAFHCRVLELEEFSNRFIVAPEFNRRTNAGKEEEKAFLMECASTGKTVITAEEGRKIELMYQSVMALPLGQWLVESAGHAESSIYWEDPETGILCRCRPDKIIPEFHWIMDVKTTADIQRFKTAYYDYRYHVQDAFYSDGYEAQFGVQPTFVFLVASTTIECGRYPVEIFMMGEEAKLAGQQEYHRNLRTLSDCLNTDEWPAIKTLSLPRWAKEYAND

Series [5] concerns the target T5, RecE564 F665A (Escherichia coli K12, UniProt P15032 564-866, F665A).
T5 sequence: T1 sequence with L95P, F102A

Series [6] has as its target T6, RecE564 H609A (Escherichia coli K12, UniProt P15032 564-866, H609A).
T6 sequence: T1 sequence with H46A, L95P

For series [7], the target named is T7, RecE564 S617A (Escherichia coli K12, UniProt P15032 564-866, S617A).
T7 sequence: T1 sequence with S54A, L95P

Numbering of substitutions follows the chain as printed.

B1: F25 (dsDNA)
DNA 1: TAGAGCTTAATTGCTGAATCTGGTG
DNA 2: CACCAGATTCAGCAATTAAGCTCTA
The term Kd denotes the concentration at which binding is half-saturated. A high value points to lower affinity. Take B1: the dissociation constant Kd in series [1] came out at 80 ± 10 nM; in series [2], 109 ± 8 nM; in series [3], 660 ± 80 nM; in series [4] it was 110 ± 20 nM; in series [5], 200 ± 20 nM; in series [6] it was 50 ± 3 nM. In series [7], this molecule came in with an equilibrium dissociation constant (Kd) of 150 ± 20 nM.

For the origin of these results see article PMC2688778 (Structure (London, England : 1993), 2009).
